The target in this assay is Myc-tagged full-length FGD4 (FYVE, RhoGEF and PH domain-containing 4) (human) (UniProt Q96M96).
Chain of UniProt Q96M96 (Q96M96 whole entry, the tested form may be a part): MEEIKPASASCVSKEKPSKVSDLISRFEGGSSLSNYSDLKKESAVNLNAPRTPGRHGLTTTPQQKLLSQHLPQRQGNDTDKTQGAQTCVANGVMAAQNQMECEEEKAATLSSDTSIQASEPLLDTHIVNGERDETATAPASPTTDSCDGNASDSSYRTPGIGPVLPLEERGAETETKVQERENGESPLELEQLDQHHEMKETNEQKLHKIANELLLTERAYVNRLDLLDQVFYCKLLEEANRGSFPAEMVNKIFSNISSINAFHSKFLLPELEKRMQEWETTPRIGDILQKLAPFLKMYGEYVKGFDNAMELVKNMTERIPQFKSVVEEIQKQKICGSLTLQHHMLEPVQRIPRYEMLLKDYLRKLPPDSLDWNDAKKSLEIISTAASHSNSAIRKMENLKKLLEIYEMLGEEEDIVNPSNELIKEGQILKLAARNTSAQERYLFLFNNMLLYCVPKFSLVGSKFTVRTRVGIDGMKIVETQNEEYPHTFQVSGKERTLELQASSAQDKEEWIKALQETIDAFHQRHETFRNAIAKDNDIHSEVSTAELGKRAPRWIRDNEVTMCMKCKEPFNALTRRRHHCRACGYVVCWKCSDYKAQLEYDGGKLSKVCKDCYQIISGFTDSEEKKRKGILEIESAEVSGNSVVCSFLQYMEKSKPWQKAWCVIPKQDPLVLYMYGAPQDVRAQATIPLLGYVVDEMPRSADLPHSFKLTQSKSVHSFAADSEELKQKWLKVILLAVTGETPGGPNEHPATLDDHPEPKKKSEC

On to “Flag-CD40CT chimera: the entire transmembrane region of LMP1 (aa 1–177) replaced with that of CD40 (aa 1–214) (from UniProt P25942 21-214; P03230 178-386)”, for which the level of active Cdc42 (GST-CBD pull-down from NPC-TW01 lysates) on co-expression of FGD4 with CD40CT, compared with expression of FGD4 alone: did not promote Cdc42 activation turned out to be 1.1 fold.
Consider “Flag-tagged full-length latent membrane protein 1 (LMP1) (from UniProt P03230 1-386) (natural protein)”, for which the level of active Cdc42 (GST-CBD pull-down from NPC-TW01 lysates) on co-expression of Myc-FGD4 with LMP1, compared with expression of FGD4 alone is 1.8 fold.

For the origin of these results see article PMC3349753.
